Substitutions are numbered along the chain they refer to.
What was measured:
[1] = biological target: T1, mouse FcγRIV on transfected HEK293T cells (Mus musculus, UniProt A0A0B4J1G0); experiment: flow cytometry on cells; conditions: one partner purified
T1 construct: also called FcγRIV transfected cells

human H3N2 M2e peptide [2] = biological target: T2, human H3N2 M2e peptide (Influenza A virus, human H3N2 consensus); experiment: ELISA; conditions: both partners purified
T2 chain: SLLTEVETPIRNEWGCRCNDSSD

human H3N2 M2e peptide [3] = biological target: T2, human H3N2 M2e peptide; experiment: ITC; […] (300 μM) […] (30 μM) in PBS; […]; conditions: both partners purified
[4] = biological target: M2 of A/Udorn/307/1972 (H3N2) on infected cells (influenza A virus A/Udorn/307/1972 …, UniProt P0DOF5); experiment: flow cytometry on cells; conditions: one partner purified
Sequence of M2 of A/Udorn/307/1972 (H3N2) on infected cells (P0DOF5 whole entry): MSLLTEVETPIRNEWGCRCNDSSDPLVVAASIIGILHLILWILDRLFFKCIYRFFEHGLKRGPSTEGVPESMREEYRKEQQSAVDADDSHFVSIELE

[5] = biological target: M2 of A/Puerto Rico/8/1934 (H1N1) on infected cells (Influenza A virus A/Puerto Rico/8/1934 …, UniProt P06821); experiment: flow cytometry on cells; conditions: one partner purified
Sequence of M2 of A/Puerto Rico/8/1934 (H1N1) on infected cells (P06821 whole entry): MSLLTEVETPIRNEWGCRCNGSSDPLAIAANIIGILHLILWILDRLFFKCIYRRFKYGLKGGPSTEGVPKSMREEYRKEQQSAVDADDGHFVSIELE

[6] = biological target: M2 of A/Swine/Ontario/42729A/2001 (H3N3) on infected cells (Influenza A virus …, UniProt Q64HP7, strain); experiment: flow cytometry on cells; conditions: one partner purified

T1 sequence (A0A0B4J1G0 21-249): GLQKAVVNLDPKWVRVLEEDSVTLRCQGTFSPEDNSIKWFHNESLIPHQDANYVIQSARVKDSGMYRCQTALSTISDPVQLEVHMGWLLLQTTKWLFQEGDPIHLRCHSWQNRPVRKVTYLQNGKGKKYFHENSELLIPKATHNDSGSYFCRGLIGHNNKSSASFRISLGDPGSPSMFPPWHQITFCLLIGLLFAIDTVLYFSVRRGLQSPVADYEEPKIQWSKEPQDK

B1: FcγRIV-VHH-7m (VHH)
VHH: QVQLQESGGGLVQAGGSLRLSCAASGFTVDDYSIGWFRQAPGKEREGVSCISIRDGSTGYTDPVKGRFTISSDNAKNMVYLQMNMLKPEDTAVYYCAGDIYCSNDDVGVGPYDYWGQGTQVTVSS
notes: also called FcgRIV-VHH-7m; FcγRIV-specific VHH
B1: binds [1].

B2: M2e-VHH-10m (VHH)
VHH: QVQLQESGGGLVQAGESLSLSCAASGLAFDDYVIGWYRQAPGKGREGLSCMRLSNGAIMYGPSVKGRFTMSSDNAKSTFFLQMTRLIPEDTAVYYCGAEKHDVNGCGFDVAYWGQGTQVTVSS
notes: not shown: His6, C-terminal, kept
B2: binds (human H3N2 M2e peptide [2]).

B3: M2e-VHH-23m (VHH)
VHH: QVQLQESGGGLVQTGGSLRLSCAFSGFTSDDYVIGWFRQAPGKGRQGVSCIRLSGGGTIYADSAKGRFTVSADNAKKTVYLQMTRLKPEDTAVYYCGAERYNVEGCGYDVAYWGKGTQVTVSS
notes: also called M2e-VHH-m23; M1e- VHH-23m; not shown: His6, C-terminal, kept
In the case of B3, the Kd (human H3N2 M2e peptide [3]) is reported as 730 nM, the “stoichiometry N” value (human H3N2 M2e peptide [3]) is reported as 1 and the binding result [4] is reported as “binds”. The Kd [5] was 13.6 nM and the binding result [6] was “no binding (tested: 20 μg/ml)”.

B4: M2e-VHH-66m (VHH)
VHH: B3 VHH with T28I, V70I, R85S, Y101H
notes: as for B2
B4: binds (human H3N2 M2e peptide [2]).
